18 sequences from the DeepSol protein solubility set can be followed below.

The nature of the data set: soluble on expression in E. coli; label from the status in PepcDB or PDB records.
On to “METFGVFHKEDDEQMDLPPGFRFHPTDEELITHYLHKKVLDLGFSAKAIGEVDLNKAEPWELPYKAKIGEKEWYFFCVRDRKYPTGLRTNRATQAGYWKATGKDKEIFRGKSLVGMKKTLVFYRGRAPKGQKTNWVMHEYRLDGKLSAHNLPKTAKNEWVICRVFHKTAGGKKIPISTLIRIGSYGTGSSLPPLTDSSPYNDKTKTEPVYVPCFSNQAETRGTILNCFSNPSLSSIQPDFLQMIPLYQPQSLNISESSNPVLTQEQSVLQAMMENNRRQNFKTLSISQETGVSNTDNSSVFEFGRKRFDHQEVPSPSSGPVDLEPFWNY”, for which the “soluble on expression in E. coli” value was “soluble”. With “MGSDKIHHHHHHMEFSLERDEARLVEIASIQETYGTFLIEHLDEKTAIISGSWDPLRRCAFVNYVGLIVGEAEDLSAFQEGLPAGKFYIRYRDIDGDKPMSEAAIGDMLKARGRVSFRDPDYVVRVVHHGIFYVTKVVYERDKKQFIERKAPRRPFFSPVSMDPKYARFLVNTAHVRENQLLIDPFCGTGGILIEAALMGIRVIGNDVALSMAAGARTNLKHFHVEDFHIYNMDVSDLPVRDVDGIATDMPYGRNSYASEDLEVLYERSFRKFHEMLKPHGYASFVVSDPDLAELARPFFNIVHDVPVYQHRSLTRHFITAMRKD”, the “soluble on expression in E. coli” value was “not soluble”. As for “MSLNTREKYLSNVNRLVIKVGSSTLTHPSGLLNFYKIEHIVRQIADLHNQGIKVILVSSGAIGAGIGKLRLKERPKTIPEKQAAAAVGQGVLMHTYEKLFAEYGQIVGQILITREDLSSKKRVVNVQNTFSALLDHGIIPIVNENDATVVEEIKFGDNDTLSARVASLIKADLLILLSDIDGLYDSNPAVNKNAVLIDTVNEVNEEVKASAGGAGSKLGTGGMATKIRAAEIATENGISMVIANGEKQEAIRNILNFENEGTLFIPKNKEGHHHHHH”, the entry is “soluble”; as for “MGSDKIHHHHHHMKITIYSKDLYTYGAMLVGGILKETHKHNIKLIKDIKNKKLFLKSDIVILSLYSTLNIIDPVIKDTVDYLKSKNIKIYVAGPVSAYPEIILNELNVDGVILGEGELTTPEIINGSKDGLAYFENGEMIVNKPKSKPDLDFSKIYVPKDIAAQNVRGANVYIETHRGCLGHCTFCQVPEFFGRDIRSKPIELIIEEVNELKKNGVNRIAISGGTGSLYNFKNTVNKNKFIEMIESVSNIIGRQNLSVPDMRVDYVDEEVLNAIKNYSIGWVFYGIESGSDKLLNSMKKGTNSKKNLKAIELAKDCGVKVAGSFIVGHPKEKEVDFLMTKDFIVDAELDDVFVSAAEPIPKTELCTEVLNTKMDENPTFISHNGPYRRYGLKENEARAYDLMLHSEMWKSTPRVITTNLSKVYLDEAKMQGSDIRKATELIFKYRDFLI”, “not soluble”; as for “MSISMDRWQGIQHVVVVGLGITGLSVVNYLRKYHPSVTVQVIDTREAPPGQEQLSSDVALHRSGWNLEWLLNADLVVTNPGIALATPEIQQVLAAGIPVVGDIELFAWHVDTPVIAITGSNGKSTVTDLSGVLANAAGVKAAVGGNIGVPALDLISPDVELYVLELSSFQLETTSSLKLKAAAFLNLSEDHMDRYQGMEDYRQAKLRIFDHAETAVVNADDTQTFPDHAAHLQVVTFGVEQAAQFSLAQHQGREYLFARDEAVMACAELSLVGRHNVANVLTVLALLDSAGVNFRLALDALKSYTGLTHRCQVVADNHGIKWVNDSKATNVASTLAALSGLKIEGQLYLLVGGVGKGADFTPLAPVLATLPVQLCCFGVDGHQFMPLHPSARFYDSMESIIRSIRPQLKSGDMVLLSPACASFDQFKNFMARGDIFAQLARQYA”, “not soluble”. Next, “MNAHDEVQRTLNPTCTGTSVIALQYKTGVVVLTDRVVSYGKMARYKNVSRQYKVNDNVLIAFGGDHADFHWLQNVIERQVLLWKRFDQDIGPKALHGYLTSLLYAKRCKMNPVWNTLVVAGVEEEEKNNKETSTPFIGVITQKGCAYQVKHIATGLGAFLLNQAVEDEWRKKGEDLSREEAEAVLRKSLELTLYHDCVADNEFEIGRVDATEGVVLGKEEKIIGDWSIAETNCQYE”: “not soluble”; “MWEVIIMKTYIGKIHLKWCKNCNVPLLGRVCEVCGSKAEEVKLTPPGDPRLGFQYDMDFINKILEEEFGAKNVLNGKIILLNKIPGNEEAYEIIVDGEVKYLIYFDEDKEKWKVKLKLNGAKDLMEKGAYKKIIKIKNDVVEFLKNRKGSVLRPGIVEFTDDIEEKDDVIIVDENDRVVGVGLAVVSSEDIKNMEKGKVVKVRFFIKDNEDYKPGKIYDNLEEAFDLMVRANEGVIDNYERNAIGFIKNTYEKIKKPVMVAFSGGKDSLVTLILTLKALGKDIDVVFIDTGLEFEETLKNVEDVERHYGIKIIRLRGENFWEKVKEYGIPARDYRWCSEICKLEPLKKFIEENYEDDVLSFVGIRKYESFNRATKKRIHRNTYIKKQINALPIFHWSSLHVWIYLLREKAPYNKLYEKGFDRIGCFMCPAMEMGEMNKIKREFPKLWEKWENVLREYAEKHNLGEGWIKKGLWRWKHKRQ”: “soluble”; “MWITTTPWSKHSPNWVLADNGEKLIVPEIILGDAQGPTRNEWYIGLSSVLGFSFWSPDYDGVGTWLDAATQLNEQGGGDVITYSSGAHIVRTLLLAASQSNVHSTFTSKALGNDQTSSMTSSTTAVTVAKSGDGQQQTGEQKEEDWKDISKADLFKDDPYVLKNFGDSTTQAKMQSGGSTNSNGNGSQASLAFTKKALSLLKFLVDNKILKKDKVKEAIMNPDQYLSKRSKLDSNNQKPTKDDFIGSEFKDLYENAAKLNRFNSIWAEKDTDNAKFLITVVDSYFPVLPVPAAGLNETSPTLLKPWFQFRSAPSGNGTIRDYGFIPENK”: “soluble”.

For “MGSDKIHHHHHHMEVQLPKIKTVRVMLAGMTAQQESVFKMAFKMHNTTRYETVSPSDGSAVPDLVLADTDAEGGFELWKELAGRYKAIPVAVCSEKVPDSEVPYLPKPIRFETLFPMLRKLLQGENVYGKSFIAPADRSAKNNGNVQRTVTIRQFNPNKGLLGALRFAEKNRQDIAILHGNKPVLNCFPLDTTGFADRKCVKTRRIVQRRKFAGQLQDCSR”, the “soluble on expression in E. coli” value is “not soluble”. Turning to “MAHHHHHHMGTLEAQTQGPGSMIFNVLTIFPQMFPGPLGVSNLGSALKKGLWTLNVFDIRAFANNKHNTVDDTPYGGGPGMLLRADVLGRCIDEVLSLHPNTKLMFTSPRGVSFTQDIARQTMNFDNITLLCGRFEGIDERVVDFYKLQEVSIGDYVLSGGELAAMVIIDTCVRMVPGVIGNAESLKQESMEGSLEYPQYTRPASWKGMEVPEVLLTGNHGEIEKWRRNASLSITAARRPDLLKDRYGENDVE”, the “soluble on expression in E. coli” value was “soluble”.

In the case of “MSLHWLFGDQLGPHFLTPGEEGPGPETPLLMIEARSVFRRRRFHRAKAHLVLSAMRHRAAEPGDRVTYVRADTYRQGLARTARGRPVGVHHPTSHAALRLVRALPQVTVGPARGFLVPMTGFAAWAEGHGGKRLRQEDFYRWVRRGHGLLMDGEQPAAGRWNLDHDNREPPPREAASLQVGRPYRPREDDIDEEVRHDLDRWERDGDVSFVGRDGPRLFEGHHHHHH”, the “soluble on expression in E. coli” value is “soluble”.

Turning to “MSLSAPRITRVETAAIRAVGPSVLVRVWAGDEHGLGECYPSAPAAGIHHIVMNMEEQLLGEDPRDVERLYEKMRRWNIFTGGQAGAVITALSGIETALWDLAGKLQGVPVYRLLGGAFRRRVRLYADCNAGTVDAAAHHIEGGLFEEGSNEEYIAVAREAVERGFDAIKLDVDDITGPLHRDFWNGAISPREHEAMVARVAAVREAVGPEVEVAIDMHGRFDIPSSIRFARAMEPFGLLWLEEPTPPENLDALAEVRRSTSTPICAGENVYTRFDFRELFAKRAVDYVMPDVAKCGGLAEAKRIANLAELDYIPFAPHNVSSPVGTVAAAHVCAAVSNFAVLEWHAIDMPHWEDFVRYPGGPVIREGHIELTEEPGLGLELDEEAAFEHRHEKGGVPFFGRTEGHHHHHH”, the “soluble on expression in E. coli” value is on record as “soluble”. As for “MASLCNSIIGWIKNDKEVRLRKRGDTSRRDAVEAGFEPRDTVPRCHSTQSLRDVQRVRSYNNSQFQASDLSLNPNGSIRAACDSTSGSVAPTAVVNPARNHVISHRQQHHTSYEKDLIPHHNIDVDRRRSLQALNGSSALYQLNNGGSPNGVRSQFSPSDLSIHTPVHHVGSRVRVSSVNQICDSNSAPQFSIDQRRSVHNIGNPVRNSFVDGIKTTSTPKNQIAVAPLAHKSRHLSESRDEMRGGAERRGSGGQMNLPAYTNYLIRHSGEERLVDGPVTNASDARIAYLEKRIRELELTQKEQSSHSTPSQSRHSSSKSSHFNGSSNLSTSEQLRLQEMSDELANKDRKVTSLESKLLKAYQRIERLNEEYDGKIKNLMYDSERARDDLTRCVDKIQQLENELDETRAAVQNGDHANEQEYHELRDKIWKQERELQESRTLLTRLREKEAEFERMRSEKGYLELKNENLNKKLEAKKRAVEELERSVSTLRLEQTICQQSCSSGSTPLADEMEIMSDIRPSLARPYTKAHSTLGSHNMSPLSHSKSSGLTKSFSNFALNSSKQRDDITANMSRSIREQNRHITMCRAMVVCLKDTVDRMARGENPDVARLLGVKLNVMSESEMEDDEDHEADASQPFSMMSAESALSKQCGKLADLDKDLDTIRCQLADWHGQTNAEGDGDRDVCRVQ”, the entry is “not soluble”.

Consider “MMRSLLSHPQPSHAIRSPAAACALALFLSGCQSLGTDGLTASNAPAEISGPAASAIAGDMVGRLAEQIGPGTATVSLKQDNSPFGQALEAALKGWGYAVVTDQKTDGVSRIVPLAYVVIPFEGQVLTRLSTNSIELGRAYIVTTSGAQPASALAVMKRGLEHHHHHH”, for which the “soluble on expression in E. coli” value is on record as “not soluble”.

Turning to “MGSSHHHHHHSSGLVPRGSPTVTPTVNRENKPTCYPKAEISRLSASQIRNLNPVFGGSGPALTGLRNLGNTCYMNSILQCLCNAPHLADYFNRNCYQDDINRSNLLGHKGEVAEEFGIIMKALWTGQYRYISPKDFKITIGKINDQFAGYSQQDSQELLLFLMDGLHEDLNKADNRKRYKEENNDHLDDFKAAEHAWQKHKQLNESIIVALFQGQFKSTVQCLTCHKKSRTFEAFMYLSLPLASTSKCTLQDCLRLFSKEEKLTDNNRFYCSHCRARRDSLKKIEIWKLPPVLLVHLKRFSYDGRWKQKLQTSVDFPLENLDLSQYVIGPKNNLKKYNLFSVSNHYGGLDGGHYTAYCKNAARQRWFKFDDHEVSDISVSSVKSSAAYILFYTSLG”, the “soluble on expression in E. coli” value is on record as “soluble”. Next, “MSEDRSSNGHKSWLDKITQAFAHEPRNRQELLELLRDAHDNKLLDSEALSIVEGAIQVADLQVRDIMVPRSQMMSIRSTQTPKEFLPAIIEAAHSRYPVVGESLDDVMGVLLAKDLLPLILHNDERPFDIKELLRPATFVPESKRLNVLLREFRANRNHMAIVIDEYGGVAGLVTIEDVLEQIVGDIEDEHDVEEDSYIKPLPSGDFIVKALTPVDAFNDFFGSEFSDEEFDTVGGLVMSAFGHLPKRNEVVELGEFRFRVLNADSRRVHLLRLSPLQN”: “soluble”; “MAVLWRLSAVCGALGGRALLLRTPVVRPAHISAFLQDRPIPEWCGVQHIHLSPSHHSGSKAASLHWTSERVVSVLLLGLLPAAYLNPCSAMDYSLAAALTLHGHWGLGQVVTDYVHGDALQKAAKAGLLALSALTFAGLCYFNYHDVGICKAVAMLWKL”: “not soluble”. As for “MKAYLHVASGKTFSGELAAPLEEKVSGEIVFFTGMTGYQEVLTDPSYKNQIIVFTYPLIGNYGINENDFESKRPHVEAVVVYEASREGFHYGAKYSLAEYLQHWNIPLLTHVDTRALVKEIRTAGTMMAELSLSPISAVGGEEAVFPVRAVSTKTIETYGEGGPHLVLVDFGYKKSILQSLLARGCRVTVVPHDTTPEAIDALKPDGLVLSNGPGDPKQLRHQLPAIRQLIDRYPTLAICLGHQLVALAYGADTEKLRFGHRGANQPVWDAVKQNVMMTSQNHSYVVKEGSLVGKPFDIRFINVNDGSVEGIVHRHKPILSVQYHPEAHPGPHDTGYIFDEFLQTVFKGENVYA”, the entry is “soluble”.
